Data as given in publication PMC3594298.

Target: 6Xhis-tagged AldE (class 3 aldehyde dehydrogenase encoded by synpcc7942_0489) from S. elongatus PCC7942 (S. elongatus PCC7942)
Assay: SEC; HiLoad 16/60 SuperDex200 gel filtration column in 150 mM NaCl/50 mM Tris, 7.5/1 mM EDTA; elution compared with MW standards

stoichiometry N: 2
Substance: 6Xhis-tagged AldE (class 3 aldehyde dehydrogenase encoded by synpcc7942_0489) from S. elongatus PCC7942 (enzyme)
